# ± gives the uncertainty stated by the source.
# Assay: amyloid nucleation score (Sup35N fusion, yeast selection) (log enrichment); library NNK1; higher = more nucleation; inactive = no reads after selection
# Summary of the method: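 Sup35N fusions to peptides of 20 random codons were expressed in psi-negative yeast, induced 24 hours with 100 μM copper sulfate, and grown 7 days at 30°C on medium lacking adenine and uracil. Input and output plasmid inserts were sequenced by Illumina. The nucleation score is the DiMSum log enrichment of output over input reads, centred on the mode score of non-aggregating sequences. Sequences with under 100 input reads were excluded.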
row,Substance,amyloid nucleation score
1,DASTEITGLAPGFSTTVGRM,-0.536 ± 0.81
2,DATVQTWGDVKSGLWWVCCP,5.62 ± 0.098
3,DAVPSFTA,-0.666 ± 0.69
4,DAVQLMSCCMTISGPTKNRA,0.184 ± 0.56
5,DAYTGCIDNSVANAG,0.481 ± 0.6
6,DCAKTANDSDVLFFDTSGAR,0.504 ± 0.4
7,DCLWPLVSMFLVPLRASKVR,0.128 ± 0.44
8,DCQNYLSFVN,-1.29 ± 2.4
9,DCVKGHSECCRPSKLVKYWR,inactive
10,DDHSLQPRLPLE,inactive
11,DDLPPRRNASFQWNKGFFRV,-0.448 ± 1.7
12,DDPLNVTHKVRN,5.31 ± 0.069
13,DDSSDTEVRLGYALAGIKVG,-0.406 ± 0.34
14,DDYTGSEVNIITIV,-1.43 ± 0.44
15,DEPAWCSIFAGDIMLKCC,3.57 ± 0.077
16,DETDQNTFTTSIV,1.23 ± 0.28
17,DFCVQNFMMLKFKLCYRRSL,-0.134 ± 1.2
18,DFILQMLL,0.401 ± 0.3
19,DFLFNGLNITRCYFA,0.193 ± 0.72
20,DFLNWWCRCVTFNSGRSGFV,0.392 ± 0.6
21,DFLRIRVAKKSLDMGFIV,-0.251 ± 0.36
22,DFTCIRMNQSFVIRAFGALC,3.75 ± 0.16

row,Substance,amyloid nucleation score
1,DGDVE,-0.494 ± 0.74
2,DGGNVV,0.452 ± 1.2
3,DGKKYTVMSFSEQSK,-0.368 ± 1.7
4,DGLKGSLCGMGHRLCLKKMN,0.131 ± 0.41
5,DGQPLLMGEHYSLGITLM,1.1 ± 0.81
6,DGRRTDWVLCNGARIRTCYD,-0.316 ± 0.44
7,DGSLKVELQR,1.14 ± 0.49
8,DGTVR,1.62 ± 0.17
9,DIFHSLILHMDMYEG,0.811 ± 0.85
10,DIGAVIAWSNRLVWLQPTLL,-0.506 ± 0.84
11,DILDSH,-0.824 ± 0.38
12,DINWYTLDAHV,-1.86 ± 1.9
13,DISDRGTDIFVSTPGSSMLS,0.503 ± 0.43
14,DKGVFAMDKRITMVEFLS,-0.87 ± 1.3
15,DKLICLMLEAASICYKVQSG,-0.673 ± 0.57
16,DKLLPHFK,inactive
17,DKNGIPYISCEYNQM,-0.46 ± 0.72
18,DKSFDFVLGSEACMVVEVGN,-0.496 ± 0.61
19,DKTKLLLTLRNWLSP,0.177 ± 0.56
20,DLADNVRKMGEFTSSVANIL,0.204 ± 0.4
21,DLDSVGTVMGDQGDFS,-0.416 ± 0.55
22,DLEPWWACLAKGSSGLISYV,0.396 ± 0.38

row,Substance,amyloid nucleation score
1,DLFICSSARAVNKIFRVLHA,0.511 ± 0.91
2,DLHWILNHTNGACFQWGQPA,inactive
3,DLIMFD,-0.029 ± 0.73
4,DLKALCCDRMKVLGFVRSPG,1.18 ± 0.42
5,DLNCFAFVWVIIYTRDGWTI,-0.353 ± 0.3
6,DLSMKRVDKAPCYGNGDYRT,-0.644 ± 0.98
7,DLVSTVKDGAECDDKEECSL,-0.147 ± 0.26
8,DMHQRMPVFHGHRATYCC,0.102 ± 0.56
9,DMNDYSK,-0.592 ± 0.39
10,DMNNNIVSKSSFLGDVRVIY,-0.19 ± 1.2
11,DMVVRDQHL,4.7 ± 0.066
12,DNMFDTWLSGATV,-0.554 ± 0.66
13,DNNYSCILAASYLYGLKNYL,-0.12 ± 0.51
14,DNRIIWLRGTMS,0.853 ± 0.92
15,DNWSMGYPEETGAWGVN,0.406 ± 0.45
16,DPARGWPQNVNLFLLSNRR,1.01 ± 0.63
17,DPMHYL,4.55 ± 0.098
18,DPSSLNSGPCLHMAGGCGNQ,-0.249 ± 1.7
19,DQFLGYMANVAGVVP,0.686 ± 0.34
20,DRAWTGVWDDESPTT,-0.383 ± 1.7
21,DRITLLRYPWKSIAISIDEG,0.993 ± 0.36
22,DRRFFSSV,-1.36 ± 1

row,Substance,amyloid nucleation score
1,DRRRVVNINARQSVNIRFRM,8.53 ± 0.044
2,DRSTIWSTHNSTYVVYYLVV,5.18 ± 0.063
3,DRYYAGF,0.464 ± 0.55
4,DSASGNILYIRKLVI,1.84 ± 0.13
5,DSCLEGM,1.5 ± 0.66
6,DSDGFQRVPD,-0.736 ± 0.68
7,DSLIDRSKVLKQTLYSTYWL,-0.12 ± 0.48
8,DSMYF,0.367 ± 0.53
9,DSRNTDFTCYFEIYYCCVNL,8.069 ± 0.063
10,DSSLCFGSYLWLVAMSLK,-0.489 ± 0.75
11,DSTILNSLSPVWPRSATGPS,-0.529 ± 0.63
12,DSTLTVKFLMMVRYMVCSVG,1.71 ± 0.25
13,DSVVFSWVTYNTSSLSYHCG,2.41 ± 0.2
14,DTGLGVCWSAKLGYCVWGSL,6.61 ± 0.071
15,DTLGRSLLYYIRYSRVNFPV,inactive
16,DTNKNFSFSKAQ,-0.081 ± 0.37
17,DTNVVWYYLSWDSPGNGDWK,inactive
18,DTSYGLQRVCKGR,0.429 ± 0.53
19,DTVSLWLPARMTNDNFQDLS,0.399 ± 0.22
20,DVAPLGCGEPCYGSY,-1.22 ± 1.4
21,DVFHTLIRSRLDFFFYKRER,0.14 ± 0.4

# Reference: the supplement of paper PMC12042874
